Laboratory results reported in paper PMC5674511, “Increase of enzyme activity through specific covalent modification with fragments” (Chemical Science, 2017).

Assays:
[1] = system: T1, CC(=O)N[C@H]1[C@H](Oc2ccc3c(C)cc(=O)oc3c2)O[C@H](CO)[C@@H](O)[C@@H]1O; test: fluorescence, 4MU release, Michaelis-Menten; assay type: biochemical, Bacteroides thetaiotaomicron; details: unmodified BtGH84_TM (no tethered fragment)
T1 construct: recombinant purified enzyme
From the text: fluorescence, 4MU release, Michaelis-Menten on BtGH84

[2] = system: T1, CC(=O)N[C@H]1[C@H](Oc2ccc3c(C)cc(=O)oc3c2)O[C@H](CO)[C@@H](O)[C@@H]1O; test: fluorescence, 4MU release, Michaelis-Menten; assay type: biochemical, Bacteroides thetaiotaomicron

Substance: BtGH84 (Bacteroides thetaiotaomicron VPI-5482; C441S/C675S/Y571C)
- Km [1]: 4.68 ± 0.22 mM
- kcat [1]: 127 ± 6 s⁻¹
- kcat/Km [1]: 27200 ± 2460 M⁻¹ s⁻¹

Substance: BtGH84 (Bacteroides thetaiotaomicron VPI-5482; Y158F)
- Km ([2]; unmodified BtGH84_Y137F): 6.61 ± 1.282 mM
- kcat ([2]; unmodified BtGH84_Y137F): 87 ± 4 s⁻¹

Substance: BtGH84 (Bacteroides thetaiotaomicron VPI-5482; C441S/C675S/Y158F/Y571C)
- Km ([2]; unmodified BtGH84_QM): 11.215 ± 3.274 mM
- kcat ([2]; unmodified BtGH84_QM): 77 ± 15 s⁻¹
